One may read the EC50 as the concentration giving half of the maximal effect. Low readings indicate an effect from little substance, high ones a need for much substance.

Positions count from the first letter of the chain named. “And” between values parts separate entries of the source, which are not always exact repeats. Identical values can stand only once.

Experiment [1] concerns the target T1, human CCR7 (human, UniProt P32248 25-378, sulfated tyrosine residues in position Y32 and Y41 (as the filing describes the N-terminal extracellular domain)).
T1 sequence: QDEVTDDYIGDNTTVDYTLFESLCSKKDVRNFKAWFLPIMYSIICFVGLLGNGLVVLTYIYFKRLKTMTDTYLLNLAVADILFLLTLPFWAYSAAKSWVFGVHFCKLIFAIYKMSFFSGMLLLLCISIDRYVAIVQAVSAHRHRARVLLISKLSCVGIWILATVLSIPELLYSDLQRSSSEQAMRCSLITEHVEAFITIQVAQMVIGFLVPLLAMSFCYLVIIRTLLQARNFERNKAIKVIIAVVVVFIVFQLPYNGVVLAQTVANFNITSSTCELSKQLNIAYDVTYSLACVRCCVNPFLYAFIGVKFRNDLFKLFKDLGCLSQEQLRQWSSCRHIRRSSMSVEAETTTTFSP
Kind of experiment: cell-based or functional assay.

The target of experiment [2] is T1, human CCR7. Kind of experiment: FACS (flow cytometry) on CLL and TPLL cells. In general terms: In flow cytometry, cells or beads pass a laser one at a time.
Procedure: Binding of antibodies to membrane expressed CCR7 was determined by Fluorescence-activated cell sorting (FACS) by flow cytometry on three different chronic lymphocytic leukemia (CLL) samples and on three different T-cell Prolymphocytic leukaemia (TPLL) samples (data not shown). Appropriate controls (human isotype controls) were included to easily calculate the percentage of positive cells and/or the relative median fluorescence intensity (RMFI), obtained from the ratio MFI (sample)/MFI (control).
Experiment [3] concerns the target T2, sulfated antigen SYM1899 (human, N-terminal pyroGlu; Z denotes sulfated Tyrosine (two Z in (pyroGlu)DEVTDDZIGDNTTVDZTLFESLCSKKDVRNK)).
T2 construct: also called immunogen SYM1899; synthetic antigen SYM1899
T2 peptide: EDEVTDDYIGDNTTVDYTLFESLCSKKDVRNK
Kind of experiment: ELISA, SYM1899 coated on the plate, 4 parameter logistics curve fit. On the procedure: SEQ ID NO: 76). 100 ng/well SYM1899 was immobilized onto 96 well Maxisorp plates in coating buffer. Coating buffer was removed and 200 μl/well of block solution (3% w/v semi skim milk powder, PBS) was added and agitated 2 hours room temperature. Plate was washed six times with PBS-T (0.001% v/v Tween 20). […] 100 μl per well in triplicate of each antibody dilution was added to the plate in addition to a negative control of PBS and incubated 2 hours at room temperature with agitation. Plate was washed six times with PBS-T. 100 μl/well goat anti human HRP (Fc specific) (1:60,000 in PBS) was added and plates incubated for one hour agitated at room temperature. Plate was washed six times with PBS-T and once in PBS. 100 μl/well of TMB substrate solution was added and incubated at 37° C. for 10 minutes. 50 μl 1M HCl was added per well and the plate immediately read at 450 nm on a Biolise plate reader.

B1: humanized anti-CCR7 mAb 650 variant HC1 LC1 (antibody, V domains shown)
VH: EVQLLESGGGFVKPGGSLKLSCVVSGLTFRDFAMSWVRQTPEKRLVWVATISSGGFYTYYPDSVKGRFTISRDNVRNILYLQMSSLRSEDTAVYYCVRRAYRYDGTGDYSALDYWGTGTTVTVSS
VL: DIQMTQSPSSLSASVGDRVTITCRASQDIGPSLNWYQQKPGKAPKRLIYATSNLDSGVPSRFSGSGSGTDFTLTISSLQPEDFATYYCLQFASSPLTFGQGTKVEIK
With B1, in experiment [1], the “IC50 of inhibition of CCL19 induced CCR7 receptor internalization (PathHunter active internalization assay)” value was 0.415 µg/ml and 2.8 nM; the “IC50 of inhibition of CCL19 induced cAMP signalling (cAMP Secondary Messenger Pathway assay)” value was 1.61 µg/ml and 10.7 nM; the “IC50 of inhibition of CCL19 induced β-arrestin recruitment (PathHunter)” value was 9.56 µg/ml and 63.7 nM.

B2: control antibody 11-x (antibody, human IgG1, V domains shown)
VH: EVQLLESGGGFVKPGGSLKLSCVVSGLTFRDFAMSWVRQTPEKRLVWVATISSGGFYTYYPDSVKGRFTISRDNVRNILYLQMSSLRSEDTAVYYCARATTVVGTDFDYWGTGTTVTVSS
VL: B1 VL
Regarding B2, the binding result in experiment [2] is “no binding”.

B3: humanized anti-CCR7 mAb 650 variant HC3 LC3 (antibody, V domains shown)
VH: EVQLVESGGGLVQPGGSLRLSCAVSGLTFRDFAMSWVRQAPGKGLEWVSTISSGGFYTYYPDSVKGRFTISRDNSKNTLYLQMNSLRAEDTASYYCVRRAYRYDGTGDYSALDYWGQGTLVTVSS
VL: B1 VL with Y36L, R46S, R61K, T72S, K103R, V104L
notes: Human Fc; See the note on VK3 under HC1 LC3
In turn, B3 displayed an EC50 in experiment [3] of over 0.1 µM.

B4: humanized anti-CCR7 mAb 650 variant HC2 LC3 (antibody, V domains shown)
VH: B3 VH with Q13K, V24A, S25P, S75A, K76A, T78S, S93V
VL: B1 VL with Y36L, R46S, R61K, T72S, K103R, V104L
notes: as for B3
The molecule B4 showed an EC50 in experiment [3] of over 0.1 µM.

B5: humanized anti-CCR7 mAb 650 variant HC1 LC3 (antibody, V domains shown)
VH: B1 VH
VL: B1 VL with Y36L, R46S, R61K, T72S, K103R, V104L
notes: Human Fc
For B5, the EC50 in experiment [3] was over 0.1 µM.

The values above are taken from patent US20250092147A1 (PEPMAB B V, published 2025).
